First the molecules themselves.
B1: His-tagged FHOD1-N3 (1–360) [human] / GST-fused FHOD1–DAD (1081–1145) [human] (parent complex)
chain 1: MAGGEDRGDGEPVSVVTVRVQYLEDTDPFACANFPEPRRAPTCSLDGALPLGAQIPAVHRLLGAPLKLEDCALQVSPSGYYLDTELSLEEQREMLEGFYEEISKGRKPTLILRTQLSVRVNAILEKLYSSSGPELRRSLFSLKQIFQEDKDLVPEFVHSEGLSCLIRVGAAADHNYQSYILRALGQLMLFVDGMLGVVAHSDTIQWLYTLCASLSRLVVKTALKLLLVFVEYSENNAPLFIRAVNSVASTTGAPPWANLVSILEEKNGADPELLVYTVTLINKTLAALPDQDSFYDVTDALEQQGMEALVQRHLGTAGTDVDLRTQLVLYENALKLEDGDIEEAPGAGGRRERRKPSSEE
chain 2: MPTVGPSTASPEEPPGSSLPSDTSDEIMDLLVQSVTKSSPRALAARERKRSRGNRKSLRRTLKSG

Among the data in article PMC12858348, “Structural basis underlying the autoinhibition of the formin FHOD1 and its phosphorylation-dependent activation” (The Journal of Biological Chemistry, 2025) are percent of parent values, retold here.

Variants of B1 are the subject of one assay. The experiment in a line: GST pull-down, SDS-PAGE, CBB staining, band quantification; parent: 100; read off a plot.
For chain 2 MPTVGPSTASPEEPPGSSLPSDTSDEIMDLLVQSATKSSPRALAARERKRSRGNRKSLRRTLKSG [chain 2 V35A], the percent of parent is around 96%.

For chain 2 MPTVGPSTASPEEPPGSSLPSDTSDEIMDLAVQSVTKSSPRALAARERKRSRGNRKSLRRTLKSG [chain 2 L31A], the percent of parent was around 97%. On the same count and under the same terms, under chain 2 MPTVGPSTASPEEPPGSSLPSDTSDEIADLLVQSVTKSSPRALAARERKRSRGNRKSLRRTLKSG [chain 2 M28A] stands around 97%. Consider chain 2 MPTVGPSTASPEEPPGSSLPSDTSDEIMDLLAQSVTKSSPRALAARERKRSRGNRKSLRRTLKSG [chain 2 V32A], for which the percent of parent is around 95%.

In another assay the parent is B1. The description is as above. This is another data set of the same source.
As to chain 1 MAGGEDRGDGEPVSVVTVRVQYLEDTDPFACANFPEPRRAPTCSLDGALPLGAQIPAVHRLLGAPLKLEDCALQVSPSGYYLDTELSLEEQREMLEGFYEEISKGRKPTLILRTQLSVRVNAILEKLYSSSGPELRRSLFSLKQIFQEDKDLVPEFVHSEGLSCLIRVGAAADHNYQSYILRALGQLMLFVDGMLGVVAHSDTIQWLYTLCASLSRLVVKTALKLLLVFVEYSENNAPLFIRAVNSVASTTGAPPWANLVSILEEKNGADPELLVYTVTLINKTLAALPRQDSFYDVTDALEQQGMEALVQRHLGTAGTDVDLRTQLVLYENALKLEDGDIEEAPGAGGRRERRKPSSEE [chain 1 D290R], the percent of parent was around 52%. Still for that read-out and setting: to chain 1 MAGGEDRGDGEPVSVVTVRVQYLEDTDPFACANFPEPRRAPTCSLDGALPLGAQIPAVHRLLGAPLKLEDCALQVSPSGYYLDTELSLEEQREMLEGFYEEISKGRKPTLILRTQLSVRVNAILEKLYSSSGPELRRSLFSLKQIFQEDKDLVPEFVHSEGLSCLIRVGAAADHNYQSYILRALGQLMLFVDGMLGVVAHSDTIQWLYTLCASLSRLVVKTALKLLLVFVEYSENNAPLFIRAVNSVASTTGAPPWANLVSILEEKNGADPELLVYTVTLINKTLAALPDQDSFYDVTDALEQQGMEALVQRHLGTAGTDVDLRTQLVLYANALKLEDGDIEEAPGAGGRRERRKPSSEE [chain 1 E331A] belongs around 28%; to chain 1 MAGGEDRGDGEPVSVVTVRVQYLEDTDPFACANFPEPRRAPTCSLDGALPLGAQIPAVHRLLGAPLKLEDCALQVSPSGYYLDTELSLEEQREMLEGFYEEISKGRKPTLILRTQLSVRVNAILEKLYSSSGPELRRSLFSLKQIFQEDKDLVPEFVHSEGLSCLIRVGAAADHNYQSYILRALGQLMLFVDGMLGVVAHSDTIQWLYTLCASLSRLVVKTALKLLLVFVEYSENNAPLFIRAVNSVASTTGAPPWANLVSILEEKNGADPELLVYTVTLINKTLAALPDQRSFYDVTDALEQQGMEALVQRHLGTAGTDVDLRTQLVLYENALKLEDGDIEEAPGAGGRRERRKPSSEE [chain 1 D292R], around 66%.

With chain 1 MAGGEDRGDGEPVSVVTVRVQYLEDTDPFACANFPEPRRAPTCSLDGALPLGAQIPAVHRLLGAPLKLEDCALQVSPSGYYLDTELSLEEQREMLEGFYEEISKGRKPTLILRTQLSVRVNAILEKLYSSSGPELRRSLFSLKQIFQEDKDLVPEFVHSEGLSCLIRVGAAADHNYQSYILRALGQLMLFVDGMLGVVAHSDTIQWLYTLCASLSRLVVKTALKLLLVFVEYSENNAPLFIRAVNSVASTTGAPPWANLVSILEEKNGADPELLVYTVTLINKTLAALPDQDSFYRVTDALEQQGMEALVQRHLGTAGTDVDLRTQLVLYENALKLEDGDIEEAPGAGGRRERRKPSSEE [chain 1 D296R], the percent of parent is around 66%.

In another assay the parent is B1. The assay is described as above. The source holds these as a separate data set.
Turning to chain 2 MPTVGPSTASPEEPPGSSLPSDTSDEIMDLLVQSVTKSSPRALAAREDKRSRGNRKSLRRTLKSG [chain 2 R48D], the percent of parent is around 26%. For chain 2 MPTVGPSTASPEEPPGSSLPSDTSDEIMDLLVQSVTKSSPRALAARERKRSRGNRKSLERTLKSG [chain 2 R59E], the percent of parent is around 18%. Consider chain 2 MPTVGPSTASPEEPPGSSLPSDTSDEIMDLLVQSVTKSSPRALAARERKRSRGNDKSLRRTLKSG [chain 2 R55D], for which the percent of parent is around 16%. On to chain 2 MPTVGPSTASPEEPPGSSLPSDTSDEIMDLLVQSVTKSSPRALAARERKRDRGNRKDLRRDLKSG [chain 2 S51D, chain 2 S57D, chain 2 T61D], for which the percent of parent was around 6%.
